For series [1] the following is noted: cited from earlier work.
For a further series, the system named is CTLA4-CD80 bond. Briefly: Micropillar-based measurement for CTLA4-CD80 tension. The series is classed as cell-based, human. The following applies: cancer cells on micropillars, FIG. 3b. How it is done: FIG. 3: Micropillar-based measurement for CTLA4-CD80 tension. (a) A cancer cell is cultured on micropillars. The forces transmitted to the CTLA4-CD80 bond bend the micropillars. (b) Cancer cells can generate ˜2-fold higher stress than normal cells. […] (c) Cancer cells generate 4-fold higher stress transmitted to the CTLA4-CD80 bond compared to integrin-fibronectin bond. Scale bar: 5 μm.
To determine which of the two possibilities described above is likely to be true, we measured the forces CTLA4 exerts on the CD80 upon binding in both normal cells and breast cancer cells. Since trans-endocytosis requires high forces to physically remove CD80 from the cell membrane of the APC, followed by internalization, we tested whether cancer cells yield higher forces if trans-endocytosis is the unique mechanism used by cancer cells to achieve immunosuppression. We tested the human breast cancer cells MDA-MB-231 and their normal counterpart MCF10A cells, as well as the mouse breast cancer cells EO771 and their normal counterpart EPH4-EV, all of which express CTLA4 (FIG. 1). […] We also measured the forces transmitted via CTLA4 in Treg cells purified from mouse spleens. […] Moreover, when HEK293 cells, in which endogenous CTLA4 is not detected, were transfected with CTLA4 cDNA, only minimal level of forces and no trans-endocytosis of CD80 could be recorded (FIG. 2 panel c).

With Ipilimumab, in series [1] (Ipilimumab alone, 81 reports, 1265 patients, 22 clinical trials), the “patients experiencing skin lesions, colitis, hepatitis, hypophysitis, thyroiditis and other immune-related events” value was 72%. Further, in series [1] (one study), the “patients experiencing adverse events” value was 85%. As for `Cc1ccc2c(c1)C(=O)C1(O)CCN(c3ccccc3)C1=N2` (stereo not drawn) [Blebbistatin], the “force generation transmitted through the CTLA4-CD80 bond” value in the series with CTLA4-CD80 bond is listed as “does not inhibit”.
